Source: patent US20210032331A1 (PHANES THERAPEUTICS, published 2021)

Experiments:
[1] = target: T1, B12 (human IgG1 heavy chain and kappa light chain chimeric); test: ELISA peptide competition: peptide preincubated with chimeric IgG1 B12, competitor hLAG3-mFc; peptide at 600-fold hLAG3-mFc; capture on anti-human IgG, anti-mouse IgG-HRP
T1 construct: Chimeric: mouse VH and VL with human IgG1 heavy chain and kappa light chain constant regions
Method: (§1) FIGS. 5A-5D show the effect of competition peptides on LAG-3 binding to anti-LAG-3 mAbs. […] B5/IgG4 was preincubated with a competition peptide for 30 minutes. Then human LAG-3 extracellular domain (ECD) fused to mouse Fc (hLAG3-mFc) was added (the final peptide concentration was 600-fold that of hLAG3-mFc) and the mixture was incubated for 60 minutes before being added to an ELISA plate coated with anti-human IgG. The incubation was carried out at 4° C. overnight. After washing, the hLAG3-mFc bound to the immobilized B5/IgG4 on the ELISA plate was detected by adding anti-mouse IgG conjugated to horseradish peroxidase (HRP) and incubating for 60 minutes. Then, after washing, the ELISA was developed using One-step Detection Solution and measured as the absorbance at 450 nm.
(§2) Anti-human IgG in carbonate coating buffer was coated on an ELISA plate at 4° C. (50 μL/well at 1 μg/mL) overnight. In each well of a separate plate, a chimeric version of a given anti-LAG-3 mAb (50 μL/well at 1.4 nM) and a competition peptide (50 μL/well at various concentrations as indicated in the figures) were mixed and incubated for 30 minutes at room temperature. Then human LAG-3 extracellular domain (ECD) fused to mouse Fc (hLAG3-mFc) was added to each well (50 μL/well at 2 nM) and the final mixture was incubated at room temperature for 60 minutes before added to the ELISA plate (50 μL/well) for another 60-minute incubation. The final incubation after adding the mixture to the ELISA plate was also performed at 4° C. overnight in some assays. The plate was washed and the binding of hLAG3-mFc to the immobilized anti-LAG-3 mAb was detected by adding anti-mouse IgG conjugated to horseradish peroxidase ([…]) (ThermoFisher Scientific, Cat#: A16084; Waltham, Mass.) and incubating for 60 minutes.

B5/IgG4 [2] = target: T2, B5/IgG4; test: ELISA peptide competition: peptide preincubated with B5/IgG4, competitor hLAG3-mFc; capture on anti-human IgG, anti-mouse IgG-HRP
T2 construct: Chimeric: mouse VH and VL with human IgG4 heavy chain and kappa light chain constant regions; also called B5 (human IgG4 heavy chain and kappa light chain chimeric)
Method: as §1, §2

[3] = target: T3, BG29 (human IgG4 heavy chain and kappa light chain chimeric); test: ELISA peptide competition: peptide preincubated with chimeric IgG4 BG29, competitor hLAG3-mFc; peptide at 200-fold hLAG3-mFc; capture on anti-human IgG, anti-mouse IgG-HRP
T3 construct: Chimeric: mouse VH and VL with human IgG4 heavy chain and kappa light chain constant regions; also called chimeric BG29
Method: as §1, §2

[4] = target: T4, full-length human LAG-3 on stably transfected CHO-S cells (human, UniProt P18627 23-525); test: FACS, CHO-S cells stably transfected with full-length human LAG-3, PE anti-mouse IgG
T4 construct: also called hLAG3
T4 sequence: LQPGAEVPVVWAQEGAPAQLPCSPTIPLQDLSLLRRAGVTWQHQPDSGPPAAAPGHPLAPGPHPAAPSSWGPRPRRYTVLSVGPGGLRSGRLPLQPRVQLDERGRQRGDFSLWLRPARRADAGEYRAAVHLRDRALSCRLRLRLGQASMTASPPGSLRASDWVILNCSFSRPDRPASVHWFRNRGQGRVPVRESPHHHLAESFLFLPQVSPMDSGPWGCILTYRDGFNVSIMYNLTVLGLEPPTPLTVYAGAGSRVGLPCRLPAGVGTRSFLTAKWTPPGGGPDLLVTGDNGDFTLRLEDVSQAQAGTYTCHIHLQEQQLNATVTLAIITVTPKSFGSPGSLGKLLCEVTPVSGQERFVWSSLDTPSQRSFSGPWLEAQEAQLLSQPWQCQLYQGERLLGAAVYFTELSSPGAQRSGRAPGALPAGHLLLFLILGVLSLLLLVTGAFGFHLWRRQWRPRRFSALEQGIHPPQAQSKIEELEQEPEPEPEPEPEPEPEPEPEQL
Method: CHO-S cells stably transfected with full-length human LAG-3 were transferred to a 96-well plate. Around 200,000 cells were incubated with either purified chimeric anti-LAG-3 mAbs (variable regions of mouse mAbs fused to the constant regions of human IgG1 heavy chain and kappa light chain, respectively) or purified mouse anti-LAG-3 mAbs from hybridoma supernatants at various concentrations for 15 minutes at 4° C. Cells were then centrifuged at 1,000 rpm for 5 minutes and washed with FACS buffer (PBS supplemented with 5% BSA) three times. For the cells treated with the chimeric antibodies, the cells were then incubated with PE-conjugated goat anti-human IgG polyclonal antibodies and incubated on ice for another 15 minutes; for the cells treated with mouse mAbs, the cells were incubated with PE-conjugated goat anti-mouse IgG polyclonal antibodies and incubated on ice for another 15 minutes. Cells were then washed with FACS buffer three times and then resuspended in FACS buffer containing 0.1 μg/ml PI (propidium iodide) for live/dead cell gating. Cells were then run through the FACS Caliber instrument and the data were analyzed by the Flowjo software. Results of the FACS binding analysis of the mouse anti-LAG-3 mAbs (B1, B2, B3, B4, B5, B6, B7, B8, B9, B10, B11, B12, and B13) are provided in FIGS. 1A-1B.

human LAG-3(ECD)-huFc = target: T5, human LAG-3(ECD)-huFc (human, UniProt P18627 23-450); test: SPR (Biacore): mAb from hybridoma supernatant captured on anti-mouse IgG CM5 chip, human LAG-3(ECD)-huFc 50-400 nM injected
T5 construct: also called Fc-tagged human LAG-3(ECD)-huFc; not shown: human Fc (huFc) at the C-terminus
T5 sequence: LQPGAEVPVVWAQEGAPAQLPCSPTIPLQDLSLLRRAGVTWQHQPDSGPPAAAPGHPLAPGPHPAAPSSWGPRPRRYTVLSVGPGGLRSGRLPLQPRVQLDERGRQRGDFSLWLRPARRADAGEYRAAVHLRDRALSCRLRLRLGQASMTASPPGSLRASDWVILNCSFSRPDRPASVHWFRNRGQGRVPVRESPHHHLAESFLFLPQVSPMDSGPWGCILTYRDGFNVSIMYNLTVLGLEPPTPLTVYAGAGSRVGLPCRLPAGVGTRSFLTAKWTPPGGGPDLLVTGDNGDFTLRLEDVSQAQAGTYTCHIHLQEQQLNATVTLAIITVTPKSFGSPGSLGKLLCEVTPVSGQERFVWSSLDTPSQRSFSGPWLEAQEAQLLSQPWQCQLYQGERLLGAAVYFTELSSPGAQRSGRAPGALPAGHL
Method: Anti-mouse IgG antibodies were immobilized via amine coupling on CM5 chip surface. Anti-LAG-3 mAbs in hybridoma supernatants were captured on the chip surface and a series of concentrations (50-400 nM) of human LAG-3(ECD)-huFc protein were injected and passed through the captured surface. The on and off rates for antibody-antigen binding were measured, curve fitted and calculated.

[5] = target: T1, B12 (human IgG1 heavy chain and kappa …); test: ELISA peptide competition: peptide preincubated with chimeric IgG1 B12, competitor hLAG3-mFc; capture on anti-human IgG, anti-mouse IgG-HRP
Method: as §1, §2

B5/IgG4 [6] = target: T2, B5/IgG4; test: ELISA peptide competition: peptide preincubated with B5/IgG4, competitor hLAG3-mFc; peptide at 600-fold hLAG3-mFc; capture on anti-human IgG, anti-mouse IgG-HRP
Method: as §1, §2

[7] = target: T3, BG29 (human IgG4 heavy chain and kappa …); test: ELISA peptide competition: peptide preincubated with chimeric IgG4 BG29, competitor hLAG3-mFc; capture on anti-human IgG, anti-mouse IgG-HRP
Method: as §1, §2

B7/IgG4 = target: T6, B7/IgG4; test: ELISA peptide competition: peptide preincubated with B7/IgG4, competitor hLAG3-mFc; final incubation 60 min at room temperature; anti-mouse IgG-HRP
T6 construct: Chimeric: mouse VH and VL with human IgG4 heavy chain and kappa light chain constant regions; also called B7 (human IgG4 heavy chain and kappa light chain chimeric)
Method: B5/IgG4 was preincubated with a competition peptide for 30 minutes. Then human LAG-3 extracellular domain (ECD) fused to mouse Fc (hLAG3-mFc) was added (the final peptide concentration was 600-fold that of hLAG3-mFc) and the mixture was incubated for 60 minutes before being added to an ELISA plate coated with anti-human IgG. The incubation was carried out at 4° C. overnight. After washing, the hLAG3-mFc bound to the immobilized B5/IgG4 on the ELISA plate was detected by adding anti-mouse IgG conjugated to horseradish peroxidase (HRP) and incubating for 60 minutes. Then, after washing, the ELISA was developed using One-step Detection Solution and measured as the absorbance at 450 nm.
The assay condition is the same as in FIG. 5A except that the final incubation of the mAb, the competition peptide, and hLAG3-mFc on the ELISA plate was performed at room temperature for 60 minutes instead of incubation at 4° C. overnight.
Anti-human IgG in carbonate coating buffer was coated on an ELISA plate at 4° C. (50 μL/well at 1 μg/mL) overnight. In each well of a separate plate, a chimeric version of a given anti-LAG-3 mAb (50 μL/well at 1.4 nM) and a competition peptide (50 μL/well at various concentrations as indicated in the figures) were mixed and incubated for 30 minutes at room temperature. Then human LAG-3 extracellular domain (ECD) fused to mouse Fc (hLAG3-mFc) was added to each well (50 μL/well at 2 nM) and the final mixture was incubated at room temperature for 60 minutes before added to the ELISA plate (50 μL/well) for another 60-minute incubation.

T3 sequence (VH, as listed by the source, chain 1 of 2): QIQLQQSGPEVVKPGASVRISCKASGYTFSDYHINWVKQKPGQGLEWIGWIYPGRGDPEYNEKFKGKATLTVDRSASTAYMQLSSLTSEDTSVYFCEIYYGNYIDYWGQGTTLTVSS
T3 sequence (VL, as listed by the source, chain 2 of 2): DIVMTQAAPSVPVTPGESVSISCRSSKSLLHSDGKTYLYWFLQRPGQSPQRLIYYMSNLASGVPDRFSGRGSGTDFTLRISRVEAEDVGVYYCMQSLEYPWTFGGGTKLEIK
T6 sequence (VH, as listed by the source): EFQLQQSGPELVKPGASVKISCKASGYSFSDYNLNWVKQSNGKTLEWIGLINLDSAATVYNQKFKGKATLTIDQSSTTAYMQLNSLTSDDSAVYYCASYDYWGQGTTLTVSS
T1 sequence (VH, as listed by the source, chain 1 of 2): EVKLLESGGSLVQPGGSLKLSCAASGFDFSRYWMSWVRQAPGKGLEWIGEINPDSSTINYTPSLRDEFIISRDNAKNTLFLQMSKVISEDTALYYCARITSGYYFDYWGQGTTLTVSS
T1 sequence (VL, as listed by the source, chain 2 of 2): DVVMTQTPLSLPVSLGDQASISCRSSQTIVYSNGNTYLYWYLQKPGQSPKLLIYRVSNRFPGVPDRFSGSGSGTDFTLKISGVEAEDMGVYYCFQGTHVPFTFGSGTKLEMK

PAAAPGHPLAPG (also called peptide 3-14) [3-14]
binding result [1]: binds | binding result (B5/IgG4 [2]): no binding (tested: 600-fold hLAG3-mFc) | binding result [3]: binds

B1: B9 (antibody, V domains shown)
VH: EVQLRQSGPVLVKPGASVKMSCKASGYTFTGYYMNWVKQSHGKSLEWLAVINPYNGDTAYNRKFKGRATLTVDKSSSTAYMELNRLTSEDSAVYYCVRDDGYHVRYFDVWGTGTTVTVSS
VL: DIQMTQSPSSLSASLGERVSLTCRASQDISDSLCWLQQKPDGTIKRLIYSTSTLDSGVPKRFSGSRSGSDYSLTISSLESEDFADYYCLQYASSPPTFGGGTKLEIK
notes: Mouse mAb from hybridoma; also called mouse anti-LAG-3 mAb B9
EC50 (read off the curve) [4]: ~0.2 µg/mL | Kd (human LAG-3(ECD)-huFc): 1.53 nM

AAAPGHPLAPG (also called peptide 4-14) [4-14]
binding result [5]: no binding (tested: 600-fold hLAG3-mFc) | binding result [3]: binds

AAPGHPLAPG (also called peptide 5-14) [5-14]
binding result [5]: no binding (tested: 600-fold hLAG3-mFc) | binding result [3]: binds

GPPAAAPGHPLA (also called peptide 1-12) [1-12]
binding result (B5/IgG4 [6]): binds | binding result [7]: no binding (tested: 200-fold hLAG3-mFc)

PHPAAPSSWGPR (also called peptide 15-26) [15-26]
binding result (B7/IgG4): no binding (tested: 600-fold hLAG3-mFc)

PSSWGPRPRRY (also called peptide 20-30) [20-30]
binding result (B7/IgG4): no binding (tested: 600-fold hLAG3-mFc)

SSWGPRPRRY (also called peptide 21-30) [21-30]
binding result (B7/IgG4): no binding (tested: 600-fold hLAG3-mFc)

APGHPLAPG (also called peptide 6-14) [6-14]
binding result [5]: no binding (tested: 600-fold hLAG3-mFc) | binding result [7]: no binding (tested: 200-fold hLAG3-mFc)

QPDSGPPAAAPGHPL (also called peptide Q15) [Q15]
binding result (B5/IgG4 [2]): no binding (tested: 600-fold hLAG3-mFc) | binding result [5]: no binding (tested: 600-fold hLAG3-mFc)

QPDSGPPAAAPGHP (also called peptide Q14) [Q14]
binding result (B5/IgG4 [2]): no binding (tested: 600-fold hLAG3-mFc) | binding result [5]: no binding (tested: 600-fold hLAG3-mFc)

PGHPLAPG (also called peptide 7-14) [7-14]
binding result [7]: no binding (tested: 200-fold hLAG3-mFc)

APGHPLAP (also called peptide 6-13) [6-13]
binding result [7]: no binding (tested: 200-fold hLAG3-mFc)

GPPAAAPGHPL (also called peptide 1-11) [1-11]
binding result (B5/IgG4 [2]): no binding (tested: 600-fold hLAG3-mFc)
